Results as given in PMC7488360 (Acta Pharmaceutica Sinica. B, 2020).

How the values were obtained:
HuR (human antigen R) = HuR (human antigen R) (Homo sapiens, UniProt Q15717); experiment: SPR; assay type: binding
HuR RRM12 = HuR RRM12 (UniProt Q15717 18-186); experiment: EMSA
HuR full-length = HuR full-length (UniProt Q15717 1-326); experiment: EMSA
Chain of HuR full-length (Q15717 whole entry): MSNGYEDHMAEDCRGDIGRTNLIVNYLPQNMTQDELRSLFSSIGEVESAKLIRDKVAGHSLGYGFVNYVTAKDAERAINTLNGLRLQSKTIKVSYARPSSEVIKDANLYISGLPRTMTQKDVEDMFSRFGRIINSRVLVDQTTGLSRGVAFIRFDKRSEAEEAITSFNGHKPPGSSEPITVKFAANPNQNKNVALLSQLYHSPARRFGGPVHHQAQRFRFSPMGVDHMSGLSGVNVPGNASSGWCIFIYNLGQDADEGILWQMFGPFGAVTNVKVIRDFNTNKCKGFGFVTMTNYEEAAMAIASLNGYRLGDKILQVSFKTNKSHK

Chain of HuR (human antigen R) (Q15717 18-186): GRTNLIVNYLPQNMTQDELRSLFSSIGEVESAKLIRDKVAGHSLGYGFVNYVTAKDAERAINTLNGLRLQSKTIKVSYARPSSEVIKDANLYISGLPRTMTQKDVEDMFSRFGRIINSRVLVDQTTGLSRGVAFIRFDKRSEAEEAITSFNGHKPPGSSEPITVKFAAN
Chain of HuR RRM12 (Q15717 18-186): as above

For `CC1=NN(c2ccc(C)c(C)c2)C(=O)/C1=N\Nc1cccc(-c2cccc(C(=O)O)c2)c1O` [eltrombopag], the Kd (HuR (human antigen R)) was 2500 nM.

AAUUCUACAUACUAAAUCUCUCUCCUUUUUUAAUUUUAAUAUUUG (ssRNA) [AREVegf-a]: binds (HuR RRM12); binds (HuR full-length).
